Reference: patent publication US20220220204A1 (NANJING GENSCRIPT BIOTECH, published 2022)

Target: human PD-L1 (PD-L1 aAPC/CHO-K1 cells) (human, UniProt Q9NZQ7 19-290)
Assay: cell-based or functional assay

human PD-L1 (PD-L1 aAPC/CHO-K1 cells), sequence (Q9NZQ7 19-290): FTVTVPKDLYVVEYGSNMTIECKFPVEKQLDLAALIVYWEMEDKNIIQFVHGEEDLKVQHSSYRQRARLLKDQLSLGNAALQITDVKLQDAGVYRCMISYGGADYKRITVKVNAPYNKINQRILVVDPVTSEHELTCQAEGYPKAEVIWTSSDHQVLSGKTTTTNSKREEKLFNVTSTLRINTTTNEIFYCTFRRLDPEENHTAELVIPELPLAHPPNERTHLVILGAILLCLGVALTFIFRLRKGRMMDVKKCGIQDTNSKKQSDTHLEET

| Bottom (PD-1/PD-L1 blockade bioassay) | Log EC50 (PD-1/PD-L1 blockade bioassay) | Top (PD-1/PD-L1 blockade bioassay) | Binder |
| --- | --- | --- | --- |
| 28900 | -0.323 | 113000 | PDL1HCv1 (antibody, human IgG1, kappa, N297A, V domains shown) VH: EVQLVQSGAEVKKPGASVKVSCKASGYIFTGYGITWVRQAPGQGLEWMGEIFPRRVQTYYSEKFKGRVTMTTDTSTSTAYMELRSLRSDDTAVYYCARDYDPYFALDYWGQGTTVTVSS VL: DIQMTQSPSSLSASVGDRVTITCRASQDVSTAVDWYQQKPGKAPKLLIYSASYRYTGVPDRFSGSGSGTDFTFTISSLQPEDIATYYCQQHYSIPFTFGQGTKLEIKR |
| 27800 | -0.111 | 110000 | PDL1HCv5 (antibody, human IgG1, kappa, N297A, V domains shown) VH: EVQLVQSGAEVKKPGASVKVSCKASGYIFTGYGITWVRQAPGQGLEWMGEIFPRRVQTYYSEKFKGRVTMTADTSTSTAYMELRSLRSDDTAVYYCARDYDPYFALDYWGQGTTVTVSS VL: DIQMTQSPSSLSASVGDRVTITCRASQDVSTAVDWYQQKPGKAPKLLIYSASYRYTGVPDRFSGSGSGTDFTFTISSLQPEDIATYYCQQHYSIPFTFGQGTKLEIKR |
